Experimental findings from IntAct's records for PubMed 21236255 are described below.

B1: Zinc-dependent sulfurtransferase SufU (Bacillus subtilis), O32163 (parent)
chain: MSFNANLDTLYRQVIMDHYKNPRNKGVLNDSIVVDMNNPTCGDRIRLTMKLDGDIVEDAKFEGEGCSISMASASMMTQAIKGKDIETALSMSKIFSDMMQGKEYDDSIDLGDIEALQGVSKFPARIKCATLSWKALEKGVAKEEGGN

Variants of B1 are the subject of one test. Particulars: with sufs_bacsu sufS.
For C66A, the “effect of a mutation on the interaction” value is on record as “disrupting interaction”.

In the next test the parent is B1. Particulars: with sufs_bacsu sufS. This is another data set of the same source.
As to C128A, the “effect of a mutation on the interaction” value is listed as “disrupting interaction”.

A further test covers variants of B1. Particulars: with sufs_bacsu sufS. The source holds these as a separate data set.
Regarding C41A, the “effect of a mutation on the interaction” value is given as “disrupting interaction”.

The next test covers variants of B1. The note with it: with sufs_bacsu sufS. This is another data set of the same source.
For C41A, the “effect of a mutation on the interaction” value is recorded as “increasing interaction”.
